Each block holds one binder with its values, some of them ahead of it.
Tests used:
Fc tagged human PDL1 = target: T1, Fc tagged human PDL1 (human, UniProt Q9NZQ7 19-239); test: SPR
T1 construct: Bought (Sino Biological, cat. 10084-H02H); captured on the SPR chip; also called PDL1-Fc chimeric protein
Procedure, shortened: (§1)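 Kinetics were fitted with a one-to-one Langmuir model to give apparent ka, kd and KD. Binders at 0.12-90 nM (three-fold series) flowed 3 min, with 10 min dissociation and 3 M MgCl₂ regeneration, on a Biacore T200.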

[1] = target: cynomolgus CD137-Fc chimeric protein (cynomolgus monkey, UniProt A9YYE7 24-186); test: SPR
Procedure, shortened: as §1

[2] = target: T2, mouse CD137-Fc chimeric protein (mouse, UniProt P20334 24-187, limits assumed); test: SPR
T2 sequence (looked up): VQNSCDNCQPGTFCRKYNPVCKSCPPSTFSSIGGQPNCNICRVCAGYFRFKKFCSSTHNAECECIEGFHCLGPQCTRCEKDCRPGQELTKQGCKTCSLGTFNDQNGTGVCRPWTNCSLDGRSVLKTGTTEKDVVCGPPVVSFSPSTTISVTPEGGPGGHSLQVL
Procedure, shortened: as §1

Fc tagged human CD137 = target: T3, Fc tagged human CD137 (human, UniProt Q07011 24-186); test: SPR
T3 construct: also called CD137-Fc chimeric protein
Procedure, shortened: as §1

human PDL1 on cells [3] = target: T4, human PDL1 on cells (human, UniProt Q9NZQ7 19-290); test: cell-based or functional assay
[4] = target: T5, CD137 on Jurkat NFkB reporter cells (human, UniProt Q07011 24-255); test: cell-based or functional assay
[5] = target: T5, CD137 on Jurkat NFkB reporter cells; test: cell-based or functional assay; remark: listed apart in the source
[6] = target: T5, CD137 on Jurkat NFkB reporter cells; test: cell-based or functional assay; remark: listed apart in the source
[7] = target: T5, CD137 on Jurkat NFkB reporter cells; test: cell-based or functional assay; remark: listed apart in the source
biotinylated human PDL1 [8] = target: T6, biotinylated human PDL1 (human, UniProt Q9NZQ7 19-238, limits assumed, biotinylated); test: competition ELISA B7.1/PDL1
T6 construct: also called biotinylated PDL1
Procedure, shortened: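 IC₅₀ was derived by four-parameter logistic fitting of reference-subtracted A450/690 readings. The signal came from streptavidin-polyHRP40 (10 ng/ml) with a 6-minute TMB reaction detecting biotinylated PDL1 bound to the plate. Pre-mixed samples sat 1 h at RT before a 1.5 h plate incubation.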

biotinylated human PDL1 [9] = target: T6, biotinylated human PDL1; test: competition ELISA PD-1/PDL1
human serum albumin = target: T7, human serum albumin (human, UniProt P02768 25-609); test: SPR, SA coupled to chip, pH 5.5
T7 construct: Coupled directly to the CM5 chip; also called HSA; human SA
Protocol: (§2) Affinity of molecules to serum albumin (SA) of the different species was determined by SPR measurements using a Biacore T200 device (GE Healthcare). SA was directly coupled to a CM5 sensor chip (GE Healthcare) using amine coupling chemistry. […] The assay was run in a 1× PBS-Tween buffer at pH 5.5.

mouse serum albumin = target: T8, mouse serum albumin (mouse, UniProt P07724 25-608); test: SPR, SA coupled to chip, pH 5.5
T8 construct: Coupled directly to the CM5 chip; also called MSA; mouse SA
Protocol: as §2

biotinylated human PDL1 [10] = target: T6, biotinylated human PDL1; test: competition ELISA PD-1/PDL1 with HSA
Protocol: (§3) Plates were blocked for 1 hour at room temperature by adding 300 μl of PBS with i%BSA and 0.2% tween (dilution buffer) to each well. Inhibitors were serially diluted in 3-fold steps to final concentrations ranging from 300 to 0.005 ng/ml in dilution buffer containing 1 ng/ml biotinylated human PDL1. The mixtures were pre-incubated for 1 hour at room temperature under gentle agitation on a rotating mixer (21 rpm) and added to the microplates after 3 wash cycles with 450 μl wash buffer per well. Plates were incubated for 1.5 hours at room temperature under gentle agitation, then 10 ng/ml streptavidin-polyHRP40 was added to each microplate well after three washes with 450 μl of wash buffer per well. After 1 h incubation at RT, plates were washed three times with 450 μl wash buffer and TMB substrate solution was added. The enzymatic reaction was stopped after 6 minutes by addition of 1 M HCl and absorbance was measured at 450 nm using 690 nm as a reference wavelength. For calculation of IC₅₀ values, a four-parameter logistic (4PL) curve fit was performed in Graph Pad Prism using reference subtracted values.

biotinylated human PDL1 [11] = target: T6, biotinylated human PDL1; test: PD-1/PDL1 competition ELISA with 1 mg/ml HSA: coated human PD-1, biotinylated human PDL1; blocked ligand: human PD-1
Protocol: as §3

human PDL1 on cells [12] = target: T4, human PDL1 on cells; test: cell-based or functional assay; remark: listed apart in the source
[13] = target: T5, CD137 on Jurkat NFkB reporter cells; test: cell-based or functional assay; remark: listed apart in the source
[14] = target: T5, CD137 on Jurkat NFkB reporter cells; test: cell-based or functional assay; remark: listed apart in the source
[15] = target: T5, CD137 on Jurkat NFkB reporter cells; test: cell-based or functional assay; remark: listed apart in the source

Kd (Fc tagged human PDL1): 0.11 nM
koff (Fc tagged human PDL1): 0.00017 s⁻¹
Kd [1]: 4.8 nM
Kd [2]: 1200 nM
Kd (Fc tagged human CD137): 5.15 nM
koff (Fc tagged human CD137): 0.0007 s⁻¹
kon (Fc tagged human CD137): 240000 M⁻¹ s⁻¹
IC50 (ng/ml), NF-AT potency assay, +HSA (human PDL1 on cells [3]): 665 ng/mL
rel. IC50 (avelumab/test), +HSA (human PDL1 on cells [3]): 0.1 fold
EC50, NFkB reporter, CHO-PDL1, 6 h, +HSA [4]: 0.112 µg/mL
EC50, NFkB reporter, CHO-PDL1, 24 h, +HSA [5]: 0.792 µg/mL
EC50, NFkB reporter, HCC827 with IFNg, 24 h, +HSA [6]: 0.115 µg/mL
EC50, NFkB reporter, HCC827 without IFNg, 24 h, +HSA [6]: 0.0766 µg/mL
IC50 (ng/ml), NFkB reporter, CHO-PD-L1, 24 h, +HSA [7]: 792 ng/mL
IC50 (ng/ml), NFkB reporter, HCC827 + IFNg, 24 h, +HSA [7]: 115 ng/mL
IC50 (ng/ml), NFkB reporter, HCC827 - IFNg, 24 h, +HSA [7]: 76.6 ng/mL
max. activation (%), NFkB reporter, CHO-PD-L1, 24 h, +HSA [7]: 663%
rel. IC50 (urelumab/test), NFkB reporter, CHO-PD-L1, 24 h, +HSA [7]: 0.1 fold
rel. IC50 (urelumab/test), NFkB reporter, HCC827 + IFNg, 24 h, +HSA [7]: 0.46 fold
rel. IC50 (urelumab/test), NFkB reporter, HCC827 - IFNg, 24 h, +HSA [7]: 0.62 fold
IC50 (biotinylated human PDL1 [8]): 0.0163 µg/mL
rel. IC50 (IC50 avelumab/IC50 test) (biotinylated human PDL1 [8]): 0.53 fold
IC50 (biotinylated human PDL1 [9]): 0.00861 µg/mL
rel. IC50 (IC50 avelumab/IC50 test) (biotinylated human PDL1 [9]): 0.2 fold
koff (human serum albumin): 0.00067 s⁻¹
kon (human serum albumin): 240000 M⁻¹ s⁻¹
kon (mouse serum albumin): 130000 M⁻¹ s⁻¹
fold change of IC50 in presence of human serum albumin (biotinylated human PDL1 [10]): ~2 fold
IC50 (read off the curve) (biotinylated human PDL1 [11]): ~0.02 µg/mL
B1: PRO1057 (other)
chain: DIQMTQSPSSLSASVGDRVTITCQASQSINDYLAWYQQKPGKAPKLLIYKASTLASGVPSRFSGSGSGTDFTLTISSLQPEDFATYYCQQGYIITDIDNVFGTGTKVTVLGGGGGSQVQLQESGPGLVKPSETLSLTCKVSGFSFSNSYWICWIRQPPGKGLEWIGCTFVGSSDSTYYANWAKGRVTISVDSSKNQFSLKLSSVTAADTAVYYCARHPSDAVYGYANNLWGQGTLVTVSSGGGGSGGGGSGGGGSGGGGSIQMTQSPSSLSASVGDRVTITCQASQSINNVLAWYQQKPGKAPKLLIYRASTLASGVPSRFSGSGSGTDFTLTISSLQPEDFATYYCQSSYGNYGDFGTGTKVTVLGGGGGSQVQLQESGPGLVKPSETLSLTCKVSGFSFSSGYDMCWIRQPPGKGLEWIGCVVAGSVDITYYASWAKGRVTISVDSSKNQFSLKLSSVTAADTAVYYCARKDAYSDAFNLWGQGTLVTVSSGGGGSGGGGSVVMTQSPSSLSASVGDRVTITCQASQIISSRSAWYQQKPGQPPKLLIYQASKLASGVPSRFSGSGSGTDFTLTISSLQPEDFATYYCQCTYIDSNFGAFGGGTKLTVLGGGGGSGGGGSGGGGSGGGGSEVQLVESGGGLVQPGGSLRLSCAASGFSFSSSYWICWVRQAPGKGLEWVGCVFTGDGTTYYASWAKGRFTISRDNSKNTVYLQMNSLRAEDTATYFCARPVSVYYYGMDLWGQGTLVTVSS
notes: trispecific scDb-scFv; also called 38-02-A04 sc01 scDb-i/33-03-G02 sc01 scDb-o/23-12-A01-sc03, sk17sh4

Kd (Fc tagged human PDL1): ≤ 0.0035 nM
fold improvement in affinity against PRO885 (CDR graft) (Fc tagged human PDL1): 20 fold
koff (Fc tagged human PDL1): < 1e-05 s⁻¹
binding result [2]: no binding
Kd (Fc tagged human CD137): 3.5 nM
koff (Fc tagged human CD137): 0.00075 s⁻¹
kon (Fc tagged human CD137): 210000 M⁻¹ s⁻¹
IC50, NFAT reporter gene assay (human PDL1 on cells [12]): 0.0481 µg/mL
EC50, NFkB reporter, CHO-PDL1 [13]: 0.006 µg/mL
Top of curve fit, NFkB reporter, CHO-PDL1 [13]: 242
EC50, NFkB reporter, HCC827 without IFNg [14]: 0.00697 µg/mL
Top of curve fit, NFkB reporter, HCC827 without IFNg [14]: 135
EC50, NFkB reporter, HCC827 with IFNg [15]: 0.00548 µg/mL
Top of curve fit, NFkB reporter, HCC827 with IFNg [15]: 208
IC50 (ng/ml), NFkB reporter, CHO-PD-L1 [7]: 6 ng/mL
IC50 (ng/ml), NFkB reporter, HCC827 + IFNg [7]: 5.48 ng/mL
IC50 (ng/ml), NFkB reporter, HCC827 - IFNg [7]: 6.97 ng/mL
max. activation (%), NFkB reporter, CHO-PD-L1 [7]: 242%
max. activation (%), NFkB reporter, HCC827 + IFNg [7]: 208%
max. activation (%), NFkB reporter, HCC827 - IFNg [7]: 135%
rel. IC50 (urelumab/test), NFkB reporter, CHO-PD-L1 [7]: 14.4 fold
rel. IC50 (urelumab/test), NFkB reporter, HCC827 + IFNg [7]: 19.7 fold
rel. IC50 (urelumab/test), NFkB reporter, HCC827 - IFNg [7]: 16 fold
IC50 (biotinylated human PDL1 [9]): 0.00128 µg/mL
rel. IC50 (IC50 avelumab/IC50 test) (biotinylated human PDL1 [9]): 1.59 fold
B2: PRO1126 (bispecific antibody)
chain: DFQLTQSPSSLSASVGDRVTITCQASQSINDYLAWYQQKPGKSPKLLIYKASTLASGVPSRFSGSGSGTDFTLTISSLQPEDFATYYCQQGYIITDIDNVFGTGTKVTVLGGGGGSQVQLQESGPGLVKPSETLSLTCKVSGFSFSNSYWICWIRQPPGKGLEWIGCTFVGSSDSTYYANWAKGRVTISVDSSKNQFSLKLSSVTAADTAVYYCARHPSDAVYGYANNLWGQGTLVTVSSGGGGSGGGGSGGGGSGGGGSIQMTQSPSSLSASVGDRVTITCQASQSINNVLAWYQQKPGKAPKLLIYRASTLASGVPSRFSGSGSGTDFTLTISSLQPEDFATYYCQSSYGNYGDFGTGTKVTVLGGGGGSQSQLQESGPGLVKPSETLSLTCKASGFSFSSGYDMCWVRQPPGKGLEWIACVVAGSVDITYYASWAKGRVTISKDSSKNQVSLKLSSVTAADTAVYFCARKDAYSDAFNLWGQGTLVTVSS
notes: scDb; also called 38-02-A04 sc01 scDb-i/33-03-G02 sc03 Full scDb-o

Reference: US20230192897A1 (NUMAB THERAPEUTICS, published 2023)
